Assay results reported in US20240059764A1 (STARMAB BIOLOGICS SUZHOU, published 2024).

target: Staphylococcus aureus alpha toxin (Staphylococcus aureus, UniProt P09616)
Sequence (P09616 27-319 limits assumed): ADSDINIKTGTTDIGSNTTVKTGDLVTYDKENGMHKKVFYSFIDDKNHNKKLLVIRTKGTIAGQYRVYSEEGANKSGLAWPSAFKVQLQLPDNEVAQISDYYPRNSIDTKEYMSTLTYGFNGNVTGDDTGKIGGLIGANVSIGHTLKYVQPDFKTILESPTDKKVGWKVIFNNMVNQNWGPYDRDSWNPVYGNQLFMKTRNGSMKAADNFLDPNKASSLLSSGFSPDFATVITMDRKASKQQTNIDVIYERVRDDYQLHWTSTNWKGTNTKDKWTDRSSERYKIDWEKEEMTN

Binder | EC50
A3-Fc fusion proteins binding with antigen (Fc fusion) QVQLVESGGGLVQAGGSLTLSCVASGFTFSRHGMTWVRQAPGKELDYVGEINIPGDDVDYDISVKGRFTISRDNAKNTVYLHMTNLKVEDTATYWCAQAGENMRLVTRRQGTQVTVSTEPKSSDKTHTCPPCPAPELLGGPSVFLFPPKPKDTLYITREPEVTCVVVDVSHEDPEVKFNWYVDGVEVHNAKTKPREEQYNSTYRVVSVLTVLHQDWLNGKEYKCKVSNKALPAPIEKTISKAKGQPREPQVYTLPPSREEMTKNQVSLTCLVKGFYPSDIAVEWESNGQPENNYKTTPPVLDSDGSFFLYSKLTVDKSRWQQGNVFSCSVMHEALHNHYTQKSLSLSPGK | 9 ng/mL
G1-Fc fusion proteins binding with antigen (Fc fusion) QVQLVESGGDLVQPGGSLTLACEASGFTISSTGMTWVRQAPGKELDWVGDINIPGTDTDYDISVKGRFTISKDHAKNTVYLQMTSLRPEDTAIYYCAKQGANLRQGVQSPGTLVTVSSEPKSSDKTHTCPPCPAPELLGGPSVFLFPPKPKDTLYITREPEVTCVVVDVSHEDPEVKFNWYVDGVEVHNAKTKPREEQYNSTYRVVSVLTVLHQDWLNGKEYKCKVSNKALPAPIEKTISKAKGQPREPQVYTLPPSREEMTKNQVSLTCLVKGFYPSDIAVEWESNGQPENNYKTTPPVLDSDGSFFLYSKLTVDKSRWQQGNVFSCSVMHEALHNHYTQKSLSLSPGK | 7 ng/mL
F6-Fc fusion proteins binding with antigen (Fc fusion) QVQLVESGGGLAQPGGSLRLSCEASGSTLDSYTVAWFRQAPGKEREGVSCASRSGASTNYANSVKGRFTISRDNAKNTVYLQMNSLKPEDTGVYYCAAYRNFGNFCVMGRYEYDEWGQGTQVTVSSEPKSSDKTHTCPPCPAPELLGGPSVFLFPPKPKDTLYITREPEVTCVVVDVSHEDPEVKFNWYVDGVEVHNAKTKPREEQYNSTYRVVSVLTVLHQDWLNGKEYKCKVSNKALPAPIEKTISKAKGQPREPQVYTLPPSREEMTKNQVSLTCLVKGFYPSDIAVEWESNGQPENNYKTTPPVLDSDGSFFLYSKLTVDKSRWQQGNVFSCSVMHEALHNHYTQKSLSLSPGK | 3 ng/mL
huA3-Fc fusion proteins binding with antigen (Fc fusion) QVQLVESGGGLVQPGGSLRLSCAASGFTFSRHGMTWVRQAPGKGLEYVGEINIPGDDVDYDISVKGRFTISRDNAKNTLYLQMNSLRAEDTAVYYCARAGENMRLVTRGQGTLVTVSSEPKSSDKTHTCPPCPAPELLGGPSVFLFPPKPKDTLYITREPEVTCVVVDVSHEDPEVKFNWYVDGVEVHNAKTKPREEQYNSTYRVVSVLTVLHQDWLNGKEYKCKVSNKALPAPIEKTISKAKGQPREPQVYTLPPSREEMTKNQVSLTCLVKGFYPSDIAVEWESNGQPENNYKTTPPVLDSDGSFFLYSKLTVDKSRWQQGNVFSCSVMHEALHNHYTQKSLSLSPGK | 5.97 ng/mL
huG1-Fc fusion proteins binding with antigen (Fc fusion) QVQLVESGGGLVQPGGSLRLSCAASGFTISSTGMTWVRQAPGKGLEWVGDINIPGTDTDYDISVKGRFTISKDHAKNTVYLQMNSLRAEDTAVYYCAKQGANLRQGVQGQGTLVTVSSEPKSSDKTHTCPPCPAPELLGGPSVFLFPPKPKDTLYITREPEVTCVVVDVSHEDPEVKFNWYVDGVEVHNAKTKPREEQYNSTYRVVSVLTVLHQDWLNGKEYKCKVSNKALPAPIEKTISKAKGQPREPQVYTLPPSREEMTKNQVSLTCLVKGFYPSDIAVEWESNGQPENNYKTTPPVLDSDGSFFLYSKLTVDKSRWQQGNVFSCSVMHEALHNHYTQKSLSLSPGK | 6.35 ng/mL
huF6-Fc fusion proteins binding with antigen (Fc fusion) EVQLVESGGGLVQPGGSLRLSCAASGSTLDSYTVAWVRQAPGKGLEWVSCASRSGASTNYANSVKGRFTISRDNSKNTVYLQMNSLRAEDTAVYYCAAYRNFGNFCVMGRYEYDEWGQGTLVTVSSEPKSSDKTHTCPPCPAPELLGGPSVFLFPPKPKDTLYITREPEVTCVVVDVSHEDPEVKFNWYVDGVEVHNAKTKPREEQYNSTYRVVSVLTVLHQDWLNGKEYKCKVSNKALPAPIEKTISKAKGQPREPQVYTLPPSREEMTKNQVSLTCLVKGFYPSDIAVEWESNGQPENNYKTTPPVLDSDGSFFLYSKLTVDKSRWQQGNVFSCSVMHEALHNHYTQKSLSLSPGK | 2.72 ng/mL
